Values quoted from earlier work in paper PMC4346141.

How the values were obtained:
IL12Rβ2 (Homo sapiens) = IL12Rβ2 (Homo sapiens) (UniProt Q99665)
[1] = biological target: IL12Rβ1 monomer (Homo sapiens) (UniProt P42701)
IL12Rβ1 (Homo sapiens) = IL12Rβ1 (Homo sapiens) (UniProt P42701)
[2] = biological target: IL12Rβ1 clone 3 (Mus musculus) (UniProt Q60837)
[3] = biological target: IL12Rβ1 clone 2 (Mus musculus) (UniProt Q60837)
Sequence of IL12Rβ1 clone 2 (Mus musculus) (Q60837 20-565): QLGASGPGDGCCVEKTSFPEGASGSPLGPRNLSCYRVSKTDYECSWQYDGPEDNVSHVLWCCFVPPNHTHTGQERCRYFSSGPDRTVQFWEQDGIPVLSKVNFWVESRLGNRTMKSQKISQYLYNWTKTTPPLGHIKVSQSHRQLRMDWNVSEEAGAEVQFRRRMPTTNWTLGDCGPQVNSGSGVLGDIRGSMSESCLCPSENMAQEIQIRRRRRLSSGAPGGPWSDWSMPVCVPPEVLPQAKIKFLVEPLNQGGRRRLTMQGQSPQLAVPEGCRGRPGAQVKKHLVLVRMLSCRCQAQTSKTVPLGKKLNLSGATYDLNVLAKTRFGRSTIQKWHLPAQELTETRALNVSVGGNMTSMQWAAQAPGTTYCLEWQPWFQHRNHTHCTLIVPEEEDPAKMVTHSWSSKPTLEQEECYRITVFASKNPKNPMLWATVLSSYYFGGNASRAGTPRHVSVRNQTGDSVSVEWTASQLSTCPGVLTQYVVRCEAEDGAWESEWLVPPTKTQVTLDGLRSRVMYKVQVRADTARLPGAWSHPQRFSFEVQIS

Sequence of IL12 (P29459 23-219): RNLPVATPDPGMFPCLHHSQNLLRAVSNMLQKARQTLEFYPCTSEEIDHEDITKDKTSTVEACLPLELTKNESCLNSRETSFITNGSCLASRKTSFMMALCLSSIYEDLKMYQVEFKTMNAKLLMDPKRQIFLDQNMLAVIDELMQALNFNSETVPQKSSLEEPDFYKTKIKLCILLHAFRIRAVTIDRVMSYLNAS
Sequence of IL12 (P29460 23-328, further chain): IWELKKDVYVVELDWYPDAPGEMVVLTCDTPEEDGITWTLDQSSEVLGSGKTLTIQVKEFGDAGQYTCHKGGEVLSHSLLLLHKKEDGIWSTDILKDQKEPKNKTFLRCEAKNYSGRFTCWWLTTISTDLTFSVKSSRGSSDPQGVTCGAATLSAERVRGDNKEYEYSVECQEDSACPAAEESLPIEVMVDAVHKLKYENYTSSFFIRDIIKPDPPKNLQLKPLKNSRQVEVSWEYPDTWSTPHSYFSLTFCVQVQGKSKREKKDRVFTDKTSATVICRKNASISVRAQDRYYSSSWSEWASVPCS
Sequence of IL12Rβ2 (Homo sapiens) (Q99665 24-622): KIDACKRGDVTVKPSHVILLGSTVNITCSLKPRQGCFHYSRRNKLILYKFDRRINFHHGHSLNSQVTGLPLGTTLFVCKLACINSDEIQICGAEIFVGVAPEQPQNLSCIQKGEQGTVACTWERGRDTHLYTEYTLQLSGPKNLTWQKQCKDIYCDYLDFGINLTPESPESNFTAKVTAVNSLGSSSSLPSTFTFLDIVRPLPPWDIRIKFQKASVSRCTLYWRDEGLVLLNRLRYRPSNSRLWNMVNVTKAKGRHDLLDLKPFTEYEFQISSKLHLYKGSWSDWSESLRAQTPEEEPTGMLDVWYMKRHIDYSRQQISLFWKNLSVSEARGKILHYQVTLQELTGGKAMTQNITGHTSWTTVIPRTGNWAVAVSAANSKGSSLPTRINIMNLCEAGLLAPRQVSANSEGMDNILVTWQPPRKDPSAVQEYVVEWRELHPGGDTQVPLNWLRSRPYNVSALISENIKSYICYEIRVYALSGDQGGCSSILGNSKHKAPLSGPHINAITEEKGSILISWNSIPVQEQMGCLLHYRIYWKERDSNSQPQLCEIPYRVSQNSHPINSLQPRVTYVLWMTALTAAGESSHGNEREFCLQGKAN
Sequence of IL12Rβ1 clone 3 (Mus musculus) (Q60837 20-565): as the sequence (Q60837 20-565) above

IL12 (from UniProt P29459)
Kd (IL12Rβ2 (Homo sapiens)): 5 nM
Kd [1]: > 50 nM
Kd (IL12Rβ1 (Homo sapiens)): 3 nM

IL12 (from UniProt P43431)
Kd [2]: 1.3 nM
Kd [3]: 0.899 nM
